Test [1] addresses Env of AE.CM235 on infected CD4+ T cells (HIV-1).
Test [2] addresses α4β7 on RPMI 8866 cells (UniProt P13612). Kind of test: cells preincubated with ACT-1, adhesion to MADCAM-1 (competitor; 2 ug/ml).
Test [3] shares this target.
In test [4] the target is AE.A244 gp120 (HIV-1).
In test [5] the target is AE.A244 V1V2 Tags (HIV-1).
In test [6] the target is Env of 703357.2.I181L virus (HIV-1). Kind of test: cell-based or functional assay.
Test [7] concerns the target Env of 427299.c12 virus (HIV-1). The test is described as follows: cell-based or functional assay.
The target of test [8] is Env of TH023.6.I181L virus (HIV-1). Kind of test: cell-based or functional assay.
Test [9] concerns the target Env of AE.92TH023 virus (HIV-1). The test is described as follows: cell-based or functional assay.
Test [10] addresses Env of WITO.LucR.T2A.ecto virus (HIV-1). Kind of test: cell-based or functional assay.
For test [11], the target named is Env of 427299.c12.Q169K virus (HIV-1). Kind of test: cell-based or functional assay.
Test [12] deals with Env of 703357.2.Q169KR170QI181L virus (HIV-1). Kind of test: cell-based or functional assay.
Test [13] deals with Env of CM244NW.6.I181L virus (HIV-1). Kind of test: cell-based or functional assay.
Test [14] has as its target Env of Du151.2.LucR.T2A.ecto virus (HIV-1). The test is described as follows: cell-based or functional assay.
Test [15] has as its target Env of CM244NW.4.K169Q virus (HIV-1). Kind of test: cell-based or functional assay.
For test [16], the target named is Env of Ce1176_A3.LucR.T2A.ecto virus (HIV-1). Kind of test: cell-based or functional assay.
In test [17] the target is Env of Ce1086_B2.LucR.T2A.ecto virus (HIV-1). The test is described as follows: cell-based or functional assay.
Test [18] addresses Env of AE.CM244 virus (HIV-1). Kind of test: cell-based or functional assay.
Test [19] deals with Env of 92TH023 K169Q virus (HIV-1). The test is described as follows: cell-based or functional assay.
In test [20] the target is Env of 703357.2.Q169K virus (HIV-1). Kind of test: cell-based or functional assay.
The target in test [21] is Env of 703357.c02 virus (HIV-1). Kind of test: cell-based or functional assay.
The target of test [22] is Env of RHPA.LucR.T2A.ecto virus (HIV-1). Kind of test: cell-based or functional assay.
In test [23] the target is Env of 703357.2.Q169KR170Q virus (HIV-1). Kind of test: cell-based or functional assay.
The target in test [24] is Env of 427299.c12.KL.Q169K/I181L virus (HIV-1). The test is described as follows: cell-based or functional assay.
Test [25] has as its target Env of 427299.c12.H81L virus (HIV-1). Kind of test: cell-based or functional assay.
Test [26] deals with Env of 703357.2.Q169KI181L virus (HIV-1). Kind of test: cell-based or functional assay.
Test [27] concerns the target Env of CM235-2.LucR.T2A.ecto virus (HIV-1). Kind of test: cell-based or functional assay.
In test [28] the target is Env of CM244.c01.ETH2220LucR.T2A.4 virus (HIV-1). Kind of test: cell-based or functional assay.
Test [29] concerns the target Env of Du422.1.LucR.T2A.ecto virus (HIV-1). The test is described as follows: cell-based or functional assay.
Test [30] addresses Env of 644039.c01b-CM235LucR.T2A.11 virus (HIV-1). Kind of test: cell-based or functional assay.
For test [31], the target named is Env of 1051.C22.LucR.T2A.ecto virus (HIV-1). The test is described as follows: cell-based or functional assay.
Test [32] concerns the target Env of SC22.3C2.LucR.T2A.ecto virus (HIV-1). Kind of test: cell-based or functional assay.
Test [33] addresses AE.A244 V1V2 Tags (HIV-1). Kind of test: ELISA.
Test [34] deals with AE.A244 gp120 D11/K169V/V172E/H173Y (HIV-1). Kind of test: ELISA.
Test [35] has as its target AE.A244 gp120D11/K169V (HIV-1). The test is described as follows: ELISA. (In general: An ELISA detects its analyte on a solid surface through an enzyme-linked reagent.)
Test [36] has as its target AE.A244 gp120 delta 11 (HIV-1). The test is described as follows: ELISA.
Test [37] has as its target AE.427299 gp120D11/Q169K (HIV-1). The test is described as follows: ELISA.
Test [38] deals with AE.427299 gp120D11 (HIV-1). Kind of test: ELISA.
Test [39] addresses AE.A244 gp120 (HIV-1). Kind of test: ELISA.
Test [40] concerns the target AE.A244 gD+ gp120 (HIV-1). Kind of test: ELISA.
For test [41], the target named is A.Q23 V1V2 tags (HIV-1). Kind of test: ELISA.
In test [42] the target is AE.A244 gp120 delta 11 (HIV-1). The test is described as follows: ELISA. This is another data set of the same source.
The target in test [43] is B.6240 gp140C (HIV-1). The test is described as follows: ELISA.
For test [44], the target named is AE.A244 V1V2 Tags (HIV-1). Kind of test: ELISA. This is another data set of the same source.
The target of test [45] is 92TH023 V2 cyclic peptide (HIV-1). Kind of test: RPMI 8866 cell adhesion to coated peptide, mAb 10 ug/ml.
In test [46] the target is J08 C.97ZA012V1V2N156QN160Q (HIV-1). The test is described as follows: ELISA.
Test [47] concerns the target C.CAP206 gp140, natively deglycosylated (HIV-1). Kind of test: ELISA.
The target in test [48] is AE.A244 gp120 N160K (HIV-1). The test is described as follows: ELISA.
The target in test [49] is C.1086 gp120 Δ7 (HIV-1). Kind of test: ELISA.
Test [50] concerns the target B.JRFL gp140CF (HIV-1) (UniProt P20871). Kind of test: ELISA.
Test [51] deals with Env of AE.CM235 on infected CD4+ T cells (HIV-1). The test is described as follows: flow cytometry on IMC CM235-infected CD4+ T cells, 10 ug/ml, negative control.

Read-outs that look alike come from different tables or passages of the source. Bounds are passed on as bounds.

CH59 (antibody), sequence (VH): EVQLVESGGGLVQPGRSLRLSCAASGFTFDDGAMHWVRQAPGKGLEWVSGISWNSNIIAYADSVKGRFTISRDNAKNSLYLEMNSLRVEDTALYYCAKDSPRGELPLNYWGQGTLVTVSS
CH59 (antibody), sequence (VL): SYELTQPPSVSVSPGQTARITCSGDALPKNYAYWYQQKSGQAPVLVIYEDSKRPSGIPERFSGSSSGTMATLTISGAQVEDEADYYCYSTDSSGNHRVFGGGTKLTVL
CH01 (antibody), sequence (heavy, form in doubt): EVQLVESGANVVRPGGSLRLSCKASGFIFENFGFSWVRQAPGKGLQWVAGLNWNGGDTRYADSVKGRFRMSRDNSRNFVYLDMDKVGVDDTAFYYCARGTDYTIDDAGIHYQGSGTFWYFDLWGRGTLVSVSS
CH01 (antibody), sequence (light, form in doubt): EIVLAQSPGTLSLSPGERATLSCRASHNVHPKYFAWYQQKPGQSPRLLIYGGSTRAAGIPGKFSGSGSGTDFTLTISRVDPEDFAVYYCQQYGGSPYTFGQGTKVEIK

In test [1], A32 (antibody) yielded a % positive cells of 94% and an FITC MFI of 19900.

As for ACT-1 (antibody), the values for the % inhibition in [2] and in [3] were 71.3% and 53.3%, respectively.

Consider CH01 (antibody), for which, in [4], the IC50 (commonly the midpoint of a concentration-inhibition curve) is 10 to 100 nM. Further, the Kd – broadly, a measure of binding affinity in units of concentration – in [5] stood at 334 nM. For the same substance, the koff – broadly, a measure of how fast the partners let go of each other – in test [5] amounted to 0.0076 s⁻¹. For the same substance, the kon – broadly, the rate constant with which the complex forms – in [5] was found to be 23000 M⁻¹ s⁻¹. The same substance came in with an ID50 assayed in TZM-bl cells, 703357.2.I181L in [6] of over 25 µg/mL. Also, the ID50 assayed in TZM-bl cells, 427299.c12 in test [7] is 0.09 µg/mL. The ID50 assayed in TZM-bl cells, TH023.6.I181L in [8] was over 25 µg/mL. The substance further returned an ID50 assayed in TZM-bl cells, TH023.6 in test [9] of over 25 µg/mL. This substance also came in with an ID50 assayed in A3R5.7 cells, WITO.LucR.T2A.ecto in test [10] of 0.05 µg/mL. In addition, in test [11], the ID50 assayed in TZM-bl cells, 427299.c12.Q169K turned out to be 0.18 µg/mL. The same substance returned an ID50 assayed in TZM-bl cells, 703357.2.Q169KR170QI181L in test [12] of over 25 µg/mL. This substance also registered an ID50 assayed in TZM-bl cells, CM244NW.6.I181L in test [13] of 0.03 µg/mL. This substance gave an ID50 assayed in A3R5.7 cells, Du151.2.LucR.T2A.ecto in test [14] of 1.51 µg/mL. In test [15], this substance returned an ID50 assayed in TZM-bl cells, CM244NW.4.K169Q of 0.05 µg/mL. The substance also returned an ID50 assayed in A3R5.7 cells, Ce1176 A3.LucR.T2A.ecto in [16] of 0.04 µg/mL. In test [17], this substance returned an ID50 assayed in A3R5.7 cells, Ce1086 B2.LucR.T2A.ecto of over 25 µg/mL. This substance displayed an ID50 assayed in TZM-bl cells, CM244.ec1 in test [18] of 0.02 µg/mL. The ID50 assayed in TZM-bl cells, TH023.6.K169Q in test [19] amounted to 22.8 µg/mL. Further, in test [20], the ID50 assayed in TZM-bl cells, 703357.2.Q169K was over 25 µg/mL. Also, the ID50 assayed in TZM-bl cells, 703357.c02 in test [21] was over 25 µg/mL. Besides, in test [22], the ID50 assayed in A3R5.7 cells, RHPA.LucR.T2A.ecto came to 8.2 µg/mL. Further, the ID50 assayed in TZM-bl cells, 703357.2.Q169KR170Q in [23] is over 25 µg/mL. In test [24], this substance returned an ID50 assayed in TZM-bl cells, 427299.c12.KL.Q169K/I181L of 0.15 µg/mL. Further, the ID50 assayed in TZM-bl cells, 427299.c12.H81L in test [25] was determined as 0.16 µg/mL. The substance also gave an ID50 assayed in TZM-bl cells, 703357.2.Q169KI181L in test [26] of over 25 µg/mL. The ID50 assayed in A3R5.7 cells, CM235-2.LucR.T2A.ecto in test [27] is 0.04 µg/mL. In test [28], this substance came in with an ID50 assayed in A3R5.7 cells, CM244.c01.ETH2220LucR.T2A.4 of 0.33 µg/mL. Further, in [29], the ID50 assayed in A3R5.7 cells, Du422.1.LucR.T2A.ecto was over 25 µg/mL. Further, in test [30], the ID50 assayed in A3R5.7 cells, 644039.c01b-CM235LucR.T2A.11 is over 25 µg/mL. The ID50 assayed in A3R5.7 cells, 1051.C22.LucR.T2A.ecto in test [31] was over 25 µg/mL. This substance had an ID50 assayed in A3R5.7 cells, SC22.3C2.LucR.T2A.ecto in test [32] of over 25 µg/mL. Further, the EC50 (commonly the concentration that produces a half-maximal response) in test [33] was 1.7 nM; in test [34], 0.93 µg/mL; in test [35], 0.13 µg/mL; in test [36] it was 0.35 µg/mL; in test [37], over 10 µg/mL; in test [38], over 10 µg/mL. Also, the EC50 is 1.3 nM in test [39]; 0.9 nM in [40]; over 66.7 nM in [41]; 0.47 nM in test [42]; over 667 nM in [43]; 8.9 nM in [44]. Moreover, in test [45], the % inhibition (commonly the drop in the measured response relative to a control, in per cent) was -11.2%.

CH59 (antibody): the EC50 in [46] is over 667 nM; in test [47] it was over 667 nM; in test [48], 0.04 nM; in test [49], 0.07 nM.

Consider PG9 (antibody), for which the results for the EC50 in test [47], in test [50] and in test [43] were 279 nM, 273 nM and 0.3 nM, respectively.

The substance PG16 (antibody) registered an EC50 in test [43] of 10.3 nM.

In test [1], Synagis (antibody) returned an FITC MFI of 3600. In test [51], this substance returned a % of p24+ cells stained (background) of 11%.

The record behind these values is US9988424.
